From US6465220B1, “Glycosylation using GalNac-T4 transferase” (GlycoZym ApS, priority 1998, dated 2002)

Tests used:
[1] = test system: T1, C[C@H](NC(=O)[C@H](C)NC(=O)[C@@H](NC(=O)[C@@H](NC(=O)[C@H](CCC(=O)O)NC(=O)[C@@H]1CCCN1C(=O)[C@@H]1CCCN1C(=O)[C@H](C)NC(=O)[C@H](CO)NC(=O)[C@H](CO)NC(=O)[C@H](CO)NC(=O)[C@@H]1CCCN1C(=O)[C@@H]1CCCN1C(=O)[C@H](C)NC(=O)[C@@H]1CCCN1C(=O)[C@@H](NC(=O)[C@@H](NC(=O)[C@H](C)NC(=O)[C@H](CO)NC(=O)[C@@H]1CCCN1C(=O)[C@@H](NC(=O)[C@@H]1CCCN1C(=O)[C@@H]1CCCN1C(=O)[C@@H](N)CS)[C@@H](C)O)[C@@H](C)O)[C@@H](C)O)[C@@H](C)O)[C@@H](C)O)C(=O)O; test: GalNAc-transferase assay with purified recombinant GalNAc-T4; format: biochemical, human; conditions: other: acceptor substrate; pH 7.5
T1 construct: made in house; host or cells: High Five insect cells (baculovirus, pAcGP67 vector)
Procedure: In the examples, GalNAc-transferase assays were performed in 50 μl total reaction mixtures containing 25 mM cacodylate (pH 7.5), 10 mM MnCl2, 0.1-0.25% Triton X-100, 150-200 μM UDP-[^14C]-GalNAc (4,000 cpm/nmole) (Amersham) and 0.06-1 mM acceptor peptides. […] Products were quantified by scintillation counting after chromatography on Dowex-1, octadecyl silica cartridges (Bakerbond), or HPLC (PC3.2/3 or mRPC C2/C18 SC2.1/10 Pharmacia, Smart System).

[2] = test system: T2, C[C@H](NC(=O)[C@H](C)NC(=O)[C@@H](NC(=O)[C@@H](NC(=O)[C@H](CCC(=O)O)NC(=O)[C@@H]1CCCN1C(=O)[C@@H]1CCCN1C(=O)[C@H](C)NC(=O)[C@H](CO)NC(=O)[C@H](CO)NC(=O)[C@H](CO)NC(=O)[C@@H]1CCCN1C(=O)[C@@H]1CCCN1C(=O)[C@H](C)NC(=O)[C@@H]1CCCN1C(=O)[C@@H](NC(=O)[C@@H](NC(=O)[C@H](C)NC(=O)[C@H](CO)NC(=O)[C@@H]1CCCN1C(=O)[C@@H](NC(=O)[C@@H]1CCCN1C(=O)[C@@H]1CCCN1C(=O)[C@@H](N)CS)[C@@H](C)O)[C@@H](C)O)[C@@H](C)O)[C@@H](C)O)[C@@H](C)O)C(=O)O; test: GalNAc-transferase assay with purified recombinant GalNAc-T2; format: biochemical, human; conditions: other: acceptor substrate; pH 7.5
T2 construct: Control constructs pAcGP67-GalNAc-T1-sol, pAcGP67-GalNAc-T2-sol, pAcGP67-GalNAc-T3-sol, and pAcGP67-O^2-sol were prepared as previously described; made in house; host or cells: insect cells (baculovirus, pAcGP67)
Procedure: The following examples are provided to illustrate certain preferred embodiments of the invention, and should be considered as illustration and not as limitation. In the examples, GalNAc-transferase assays were performed in 50 μl total reaction mixtures containing 25 mM cacodylate (pH 7.5), 10 mM MnCl2, 0.1-0.25% Triton X-100, 150-200 μM UDP-[^14C]-GalNAc (4,000 cpm/nmole) (Amersham) and 0.06-1 mM acceptor peptides. Peptides were either synthesized or obtained from Carlbiotech (Copenhagen), or Neosystems (Strasbourg), and quality was ascertained by amino acid analysis and mass spectrometry. […] Products were quantified by scintillation counting after chromatography on Dowex-1, octadecyl silica cartridges (Bakerbond), or HPLC (PC3.2/3 or mRPC C2/C18 SC2.1/10 Pharmacia, Smart System). […]
Activities measured with the mucin derived substrates, Muc7, EA2, and Muc2 (see Table I for structures and SEQ ID NOs:19, 25 and 18, respectively), were only 2-7 fold over background values. […] GalNAc-T4 was expressed in High Five cells and purified to near homogeneity, however, very low endogenous activity was detected with some substrates in the same fractions when medium from cells infected with irrelevant expression constructs were used in the same purification strategy. […]

GalNAc-T4 (Homo sapiens), sequence (chain, as listed by the source): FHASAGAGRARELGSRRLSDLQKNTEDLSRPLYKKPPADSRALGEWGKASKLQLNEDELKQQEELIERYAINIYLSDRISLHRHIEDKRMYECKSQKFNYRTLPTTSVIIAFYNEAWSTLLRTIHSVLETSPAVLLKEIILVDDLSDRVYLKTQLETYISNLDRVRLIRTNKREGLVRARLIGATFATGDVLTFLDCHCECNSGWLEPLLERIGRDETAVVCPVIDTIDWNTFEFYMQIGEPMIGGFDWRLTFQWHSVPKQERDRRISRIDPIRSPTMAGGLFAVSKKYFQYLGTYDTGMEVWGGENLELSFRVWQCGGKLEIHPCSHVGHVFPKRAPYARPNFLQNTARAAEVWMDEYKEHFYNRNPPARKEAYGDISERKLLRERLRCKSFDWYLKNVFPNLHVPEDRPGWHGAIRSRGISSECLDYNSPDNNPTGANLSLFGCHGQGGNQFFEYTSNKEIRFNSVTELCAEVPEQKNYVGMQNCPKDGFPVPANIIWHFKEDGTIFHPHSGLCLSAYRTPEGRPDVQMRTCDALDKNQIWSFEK
GalNAc-T2 (Homo sapiens), sequence (chain, as listed by the source): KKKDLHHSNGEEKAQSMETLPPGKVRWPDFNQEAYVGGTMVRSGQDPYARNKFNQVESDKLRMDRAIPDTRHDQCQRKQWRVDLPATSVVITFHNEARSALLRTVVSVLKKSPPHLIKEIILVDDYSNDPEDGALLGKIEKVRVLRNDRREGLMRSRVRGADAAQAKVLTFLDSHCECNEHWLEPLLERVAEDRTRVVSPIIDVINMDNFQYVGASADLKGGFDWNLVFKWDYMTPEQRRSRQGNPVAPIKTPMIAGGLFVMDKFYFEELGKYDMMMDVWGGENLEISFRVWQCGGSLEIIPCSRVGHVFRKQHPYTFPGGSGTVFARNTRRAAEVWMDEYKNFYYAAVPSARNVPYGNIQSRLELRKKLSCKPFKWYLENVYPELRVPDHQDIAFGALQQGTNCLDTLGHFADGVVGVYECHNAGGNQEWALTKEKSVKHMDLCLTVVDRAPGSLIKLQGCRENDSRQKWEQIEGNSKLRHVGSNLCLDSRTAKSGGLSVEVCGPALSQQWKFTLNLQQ

In the case of GalNAc-T4 (Homo sapiens), the Km [1] is reported as 480 µM and the Vmax [1] is reported as 0.25 nmol/min/µg.
GalNAc-T2 (Homo sapiens) was tested, and the Km [2] was 15 µM and the Vmax [2] was 0.64 nmol/min/µg.
